Results on 8 molecules are retold here after patent publication US20090068224A1, “METHOD TO IDENTIFY POLYPEPTIDE TOLL-LIKE RECEPTOR (TLR) LIGANDS” (VAXINNATE CORPORATION, priority 2005, published 2009).

Assay [1] addresses T1, TLR2 (Homo sapiens, UniProt O60603). Nature of the assay: NF-κB-dependent luciferase reporter assay, 293 vs 293.hTLR2 cells. It is filed as cell-based. Particulars: synthetic peptide on parental 293 and 293.hTLR2 cells, four to five hours at 37° C. The method, then:
NF-κB-dependent luciferase reporter assay: Parental 293 cells and 293.hTLR2 cells (see Example 1, above) were incubated with an aliquot of test peptide four to five hours at 37° C. NF-κB-dependent luciferase activity was measured using the Steady-Glo Luciferase Assay System by Promega (E2510), following the manufacturer's instructions. Luminescence was measured on a microplate luminometer (FARCyte, Amersham) and expressed as relative luminescence units (RLU) after subtracting the background reading obtained by exposing cells to the DMEM medium alone.
The biological activity of the TLR2-binding peptides isolated by the screening method was confirmed using the isolated peptides in an NF-κB-dependent reporter gene assay. For this assay, a synthetic monomer of the DPDSG motif (SEQ ID NO: 5), or a concatemerized copy (DPDSG)5, was incubated on parental HEK293 cells containing an NF-κB-dependent luciferase reporter construct (293) and on TLR2-overexpressing HEK293 cells containing an NF-κB-dependent luciferase reporter construct (293.hTLR2, see Example 1, above). Luciferase activity was then measured. […] Thus, the TLR2-binding peptides identified by the screening assay are functional peptide TLR2 ligands.
Target sequence in this assay (O60603 21-784): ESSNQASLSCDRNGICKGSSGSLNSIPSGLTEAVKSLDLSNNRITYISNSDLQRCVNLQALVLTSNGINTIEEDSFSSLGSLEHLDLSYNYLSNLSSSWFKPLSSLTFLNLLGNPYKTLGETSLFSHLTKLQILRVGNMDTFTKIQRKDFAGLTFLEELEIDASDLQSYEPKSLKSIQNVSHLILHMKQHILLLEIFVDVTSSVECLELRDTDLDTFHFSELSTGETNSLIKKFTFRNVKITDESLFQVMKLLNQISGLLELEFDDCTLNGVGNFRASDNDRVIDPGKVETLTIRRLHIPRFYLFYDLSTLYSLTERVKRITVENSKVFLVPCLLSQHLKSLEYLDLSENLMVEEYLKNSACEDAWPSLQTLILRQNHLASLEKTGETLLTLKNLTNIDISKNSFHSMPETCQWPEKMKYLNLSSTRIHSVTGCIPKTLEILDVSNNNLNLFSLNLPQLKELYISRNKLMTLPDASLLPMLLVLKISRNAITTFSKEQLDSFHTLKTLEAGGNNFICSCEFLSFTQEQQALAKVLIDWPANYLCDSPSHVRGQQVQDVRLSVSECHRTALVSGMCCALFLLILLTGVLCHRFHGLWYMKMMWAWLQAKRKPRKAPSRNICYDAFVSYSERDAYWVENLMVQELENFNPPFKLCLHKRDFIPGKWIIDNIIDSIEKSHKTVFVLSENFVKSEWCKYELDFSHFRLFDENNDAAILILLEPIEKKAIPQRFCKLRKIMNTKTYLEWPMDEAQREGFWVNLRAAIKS

The target of assay [2] is T1, TLR2. The arrangement: host or cells: monocytes and epithelial cells. Particulars: cited from earlier work.
Target sequence in this assay (O60603 21-784, species assumed): as the sequence (O60603 21-784) above
Assay [3] addresses human TLR2 (293.hTLR2 cells) (Homo sapiens, UniProt O60603). Nature of the assay: Biopanning of pentameric random peptide phage display library, sequencing of enriched clones. The class given is binding. The following applies: percentage of all clones sequenced (n = 109) having given peptide sequence; after 4 rounds of biopanning, TLRlo parental HEK293, TLRhi 293.hTLR2; peptides with identity to known microbial proteins. Here is the method: (§1) Screening of phage display libraries by biopanning: Phage display libraries are screened for peptide TLR ligands according to the following procedure. The phage display library is incubated on an in vitro cultured monolayer of cells that express minimal amounts of the TLR of interest (TLR^lo) in order to reduce non-specific binding, and then transferred to an in vitro suspension culture of cells expressing the relevant TLR (TLR^hi) to capture phage with binding specificity for the target TLR. After several washes with PBS to remove phage remaining unbound to the TLR^hi cells, TLR^hi cell-bound phages are harvested by centrifugation. The TLR^hi cells with bound phage are incubated with E. coli (strain BLT5615) in order to amplify the phage. This process is repeated three or more times to yield a phage population enriched for high affinity binding to the target TLR.
In each round of biopanning, the harvested phage that are bound to TLR^hi cells can be titred prior to amplification, amplified, and then titred again prior to initiation of the next cycle of biopanning. In this way, it is possible to determine the percent (%) of input phage in each cycle that are ultimately harvested from the TLR^hi cells. This calculation provides a round-by-round measure of enrichment within the phage display library for phage that display TLR-binding peptides.
Construction of random peptide libraries (RPL): A pentameric random peptide phage display library of T7SELECT phage was constructed essentially as described in Example 2. A pair of phosphorylated oligonucleotides with the sequence NNBNNBNNBNNBNNB (where N=A/G/C/T, B=G/C/T) flanked at the 5′ and 3′ ends by EcoRI and HindIII sites, respectively, was synthesized. Equimolar amounts of the oligonucleotides were annealed by heating for 5 min at 90° C. with gradual cooling to 25° C. The double stranded DNA was ligated to T7Select 10-3 bacteriophage vector (Novagen) that had been previously digested with EcoRI and HindIII. The ligation reactions were packaged in vitro and titred using the host E. coli strain […] that was grown in M9TB (Novagen), generating 2.5×10^7 clones, representing about 75% coverage of the library. The recombinant phage were subjected to several rounds of amplification to generate a total library of 1.35×10^12 phage, ensuring representation in excess of 5×10^4 fold for each clone in the library.
(§2) Sequencing of phage inserts: Individual phage clones from the enriched pool are isolated via plaque formation in E. coli. The DNA inserts of individual phage are amplified in PCR using the commercially available primers T7SelectUP (5′-GGAGCTGTCGTATTCCAGTC-3′; SEQ ID NO: 37; Novagen, catalog #70005) and T7SelectDOWN (5′-AACCCCTCAAGACCCGTTTA-3′; SEQ ID NO: 38; Novagen, catalog #70006). The PCR product DNA is purified using the QIAquick 96 PCR Purification Kit (Qiagen) and subjected to DNA sequencing using T7SelectUP and T7SelectDOWN primers.
We constructed a pentameric random peptide phage display library in T7 phage. This phage library was then screened by biopanning as described in Example 3. For this screen, the TLR^lo cells were parental HEK293 (TLR2^−) cells, and the TLR^hi cells were HEK293 cells ectopically expressing human TLR2 (293.hTLR2, see Example 1, above). Phage bound to 293.hTLR2 cells were harvested, titred, and amplified prior to initiation of the each cycle of panning. In this way, it was possible to determine the % of input phage in each cycle that was ultimately harvested from the TLR2^hi cells.
After 4 rounds of biopanning, individual phage clones from the enriched pool were isolated via plaque formation in E. coli. […] phage clones were randomly picked for sequencing. Of the 109 individual clones examined the motif DPDSG was predominant (see Tables 6 and 7). […]

Assay [4] has as its target human TLR2 and human CD14 (293.hTLR2.hCD14 cells) (Homo sapiens, UniProt O60603). Kind of assay: Biopanning of pooled 10, 15 and 20 amino acid random peptide phage display libraries, sequencing of enriched clones. It is filed as binding. Particulars: percentage of all clones sequenced having given peptide sequence; 96 clones picked after 4 rounds of biopanning, TLRlo parental HEK293, TLRhi 293.hTLR2.hCD14. The method, then:
as §1
Libraries of phage displaying random peptides 10, 15 and 20 amino acids in length were constructed essentially as described for the pentameric random peptide library, except that the phosphorylated oligonucleotides used were 30, 45, and 60 nucleotides in length, respectively.
as §2
We also constructed 10, 15, and 20 amino acid random peptide phage display libraries in T7SELECT phage. These phage display libraries were pooled in equal proportion and then screened by biopanning as described in Example 3. […] Of the 96 clones analyzed three peptide sequences were particularly abundant (see Table 8). […]

In another assay the target is T2, human TLR5 (human, UniProt O60602 21-858).
T2 construct: Expressed ectopically on HEK293 cells from the bought Invivogen plasmid pUNO-hTLR5 (293.hTLR5); also called hTLR5
Nature of the assay: fliC-phage incubated on 293 and 293.hTLR5 cells; NF-κB luciferase read-out.

Sequence of human TLR2 and human CD14 (293.hTLR2.hCD14 cells) (O60603 21-784): as the sequence (O60603 21-784) above
Sequence of human TLR2 (293.hTLR2 cells) (O60603 21-784): as the sequence (O60603 21-784) above
T2 sequence (O60602 21-858 limits assumed): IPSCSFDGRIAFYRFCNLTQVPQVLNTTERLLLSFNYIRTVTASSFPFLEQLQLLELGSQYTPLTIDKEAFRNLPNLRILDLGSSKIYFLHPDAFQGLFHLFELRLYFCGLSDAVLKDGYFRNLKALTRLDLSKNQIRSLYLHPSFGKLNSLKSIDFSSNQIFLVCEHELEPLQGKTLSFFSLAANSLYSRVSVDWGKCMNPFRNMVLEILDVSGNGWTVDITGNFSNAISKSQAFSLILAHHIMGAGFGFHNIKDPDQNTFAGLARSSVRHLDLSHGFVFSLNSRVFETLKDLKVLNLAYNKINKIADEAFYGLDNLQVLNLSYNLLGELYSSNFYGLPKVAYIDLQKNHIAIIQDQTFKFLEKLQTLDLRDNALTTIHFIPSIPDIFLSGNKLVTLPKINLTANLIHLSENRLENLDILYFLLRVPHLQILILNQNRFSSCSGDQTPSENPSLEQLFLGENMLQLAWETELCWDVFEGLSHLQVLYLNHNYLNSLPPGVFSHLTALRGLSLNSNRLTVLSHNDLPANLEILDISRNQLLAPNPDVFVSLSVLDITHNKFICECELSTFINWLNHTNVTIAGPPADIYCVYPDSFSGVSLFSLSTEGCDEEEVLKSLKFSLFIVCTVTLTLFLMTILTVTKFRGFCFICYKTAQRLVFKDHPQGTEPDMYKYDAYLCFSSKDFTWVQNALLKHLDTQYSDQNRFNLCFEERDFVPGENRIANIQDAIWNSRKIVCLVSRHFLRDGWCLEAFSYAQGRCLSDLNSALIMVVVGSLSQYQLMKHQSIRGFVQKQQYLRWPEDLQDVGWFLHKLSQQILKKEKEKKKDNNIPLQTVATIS

For “(DPDSG)5 (DPDSGDPDSGDPDSGDPDSGDPDSG) [concatemerized copy of the DPDSG motif, solid phase synthesis]”, in the assay with TLR2 [1], the “NF-κB-dependent luciferase reporter gene expression” value is listed as “activated luciferase reporter gene expression in a TLR2-dependent manner”.
“ALTTE (PEPTIDEALTTE) [pentapeptide derived from fimbrial subunit protein, known TLR2 ligand]”: the “activation of monocytes and epithelial cells via TLR2 signaling” value with TLR2 [2] (Ogawa et al. 1995, 2002, Asai et al. 2001) is “activate monocytes and epithelial cells via TLR2 signaling”.
For “DPDSG [peptide TLR2 ligand; also made as synthetic monomer]”, the “% Abundance” value in assay [3] was 46.8%. Also, the “NF-κB-dependent luciferase reporter gene expression” value with TLR2 [1] was “activated luciferase reporter gene expression in a TLR2-dependent manner”.
As to “GLTTE (PEPTIDEGLTTE) [A to G substitution variant of ALTTE]”, the “antagonism of the wild-type peptide and full-length fimbrial protein” value with TLR2 [2] (single amino acid substitution (A to G), Ogawa et al. 1995) is “antagonize the activity of the wild-type peptide and full-length protein”.
With “GRRGLCRGCRTRGRIKQLQSAHK [peptide TLR2 ligand from phage display]”, the “% Abundance” value in assay [4] amounted to 16.1%.
As to “KGGVGPVRRSSRLRRTTQPG [peptide TLR2 ligand from phage display]”, the “% Abundance” value in assay [4] is recorded as 33.3%.
Consider “RWGYHLRDRKYKGVRSHKGVPR [peptide TLR2 ligand from phage display]”, for which, in assay [4], the “% Abundance” value amounted to 19.4%.

B1: T7 phage displaying the E. coli flagellin (fliC) protein (ligand)
chain: MAQVINTNSLSLITQNNINKNQSALSSSIERLSSGLRINSAKDDAAGQAIANRFTSNIKGLTQAARNANDGISVAQTTEGALSEINNNLQRVRELTVQATTGTNSESDLSSIQDEIKSRLDEIDRVSGQTQFNGVNVLAKNGSMKIQVGANDNQTITIDLKQIDAKTLGLDGFSVKNNDTVTTSAPVTAFGATTTNNIKLTGITLSTEAATDTGGTNPASIEGVYTDNGNDYYAKITGGDNDGKYYAVTVANDGTVTMATGATANATVTDANTTKATTITSGGTPVQIDNTAGSATANLGAVSLVKLQDSKGNDTDTYALKDTNGNLYAADVNETTGAVSVKTITYTDSSGAASSPTAVKLGGDDGKTEVVDIDGKTYDSADLNGGNLQTGLTAGGEALTAVANGKTTDPLKALDDAIASVDKFRSSLGAVQNRLDSAVTNLNNTTTNLSEAQSRIQDADYATEVSNMSKAQIIQQAGNSVLAKANQVPQQVLSLLQG
notes: also called fliC phage; recombinant fliC-phage
B1: the binding result in the assay with human TLR5 was “binds”.
